The Immune Epitope Database (IEDB)
Each block holds one sequence with its values, some of them ahead of it.

Experiments:
HLA-B*07:02 [1] = test: IEDB peptide-MHC binding, purified MHC/direct/fluorescence; filed as Kd, often an IC50 or EC50 that approximates it; ≥ and ≤ were set here for values at or beyond the usual limits of such assays; conditions: source organism: Mammarenavirus juninense
HLA-C*03:03 = test: as above
HLA-B*57:01 [2] = test: IEDB peptide-MHC binding, purified MHC/competitive/radioactivity; filed as Kd, often an IC50 or EC50 that approximates it; ≥ and ≤ were set here for values at or beyond the usual limits of such assays
HLA-B*58:01 [3] = test: as above
HLA-A*11:01 = test: IEDB peptide-MHC binding, purified MHC/competitive/fluorescence; ≥ and ≤ were set here for values at or beyond the usual limits of such assays
HLA-B*15:01 [4] = test: IEDB peptide-MHC binding, purified MHC/direct/fluorescence; filed as Kd, often an IC50 or EC50 that approximates it; ≥ and ≤ were set here for values at or beyond the usual limits of such assays; conditions: source organism: Mycobacterium tuberculosis C
HLA-B*35:01 [5] = test: IEDB peptide-MHC binding, purified MHC/competitive/fluorescence; filed as Kd, often an IC50 or EC50 that approximates it; ≥ and ≤ were set here for values at or beyond the usual limits of such assays
HLA-C*12:03 = test: IEDB peptide-MHC binding, purified MHC/direct/fluorescence; filed as Kd, often an IC50 or EC50 that approximates it; ≥ and ≤ were set here for values at or beyond the usual limits of such assays
HLA-A*30:01 = test: IEDB peptide-MHC binding, purified MHC/competitive/radioactivity; filed as Kd, often an IC50 or EC50 that approximates it; ≥ and ≤ were set here for values at or beyond the usual limits of such assays; conditions: source organism: Dengue virus 4 Philippines/H241/1956
HLA-B*15:17 = test: IEDB peptide-MHC binding, purified MHC/direct/fluorescence; filed as Kd, often an IC50 or EC50 that approximates it; ≥ and ≤ were set here for values at or beyond the usual limits of such assays; conditions: source organism: Giardia lamblia ATCC 50803
HLA-B*57:01 [6] = test: as above; conditions: source organism: Giardia lamblia ATCC 50803
HLA-B*58:01 [7] = test: as above; conditions: source organism: Giardia lamblia ATCC 50803
HLA-B*46:01 = test: IEDB peptide-MHC binding, purified MHC/competitive/fluorescence; filed as Kd, often an IC50 or EC50 that approximates it; ≥ and ≤ were set here for values at or beyond the usual limits of such assays; conditions: source organism: Giardia lamblia ATCC 50803
HLA-A*01:01 = test: as above
HLA-A*03:01 = test: as above; conditions: source organism: Escherichia coli
HLA-B*15:01 [8] = test: as above; conditions: source organism: Escherichia coli
HLA-B*07:02 [9] = test: IEDB peptide-MHC binding, purified MHC/competitive/radioactivity; filed as Kd, often an IC50 or EC50 that approximates it; ≥ and ≤ were set here for values at or beyond the usual limits of such assays
HLA-B*35:01 [10] = test: as above
HLA-B*51:01 = test: as above
HLA-B*53:01 = test: as above
HLA-B*54:01 = test: as above
HLA-B*18:01 = test: IEDB peptide-MHC binding, purified MHC/direct/fluorescence; filed as Kd, often an IC50 or EC50 that approximates it; ≥ and ≤ were set here for values at or beyond the usual limits of such assays; conditions: source organism: Francisella tularensis subsp. holarctica LVS
HLA-B*40:01 = test: as above; conditions: source organism: Francisella tularensis subsp. holarctica LVS
[11] = source organism: Dengue virus 1 Singapore/S275/1990
[12] = source organism: Dengue virus 2 Peru/IQT2913/1996
[13] = source organism: Dengue virus 4 Philippines/H241/1956
[14] = source organism: Giardia lamblia ATCC 50803
[15] = source organism: Dengue virus 1 Brazil/97-11/1997
[16] = source organism: Vaccinia virus WR
[17] = source organism: Dengue virus 3 Martinique/1243/1999
[18] = source organism: Lymphocytic choriomeningitis virus (strain Armstrong)

Sequence: AAVKAGASI
Kd (HLA-B*07:02 [1]): 2060 nM | Kd (HLA-C*03:03; source organism: Mammarenavirus machupoense): ≤ 1 nM

Sequence: ASSVLLWMAS
Kd (HLA-B*57:01 [2]; [11]): 15100 nM | Kd (HLA-B*58:01 [3]; [11]): 690 nM

Sequence: ATLEDDRER
IC50 (HLA-A*11:01; source organism: Variola virus): 49400 nM

Sequence: DRSDGYFLK
IC50 (HLA-A*11:01; source organism: Vaccinia virus Copenhagen): 31800 nM

Sequence: EQFWCGIPY
Kd (HLA-B*15:01 [4]): 78.8 nM | Kd (HLA-B*35:01 [5]; source organism: Mycobacterium tuberculosis C): 0.2 nM

Sequence: ESWEEIPYLG
Kd (HLA-B*57:01 [2]; [12]): 78.3 nM | Kd (HLA-B*58:01 [3]; [12]): 90.3 nM

Kd (HLA-C*12:03; source organism: Homo sapiens): ≤ 1 nM
Sequence: FIFPASKVY

Sequence: GASKRSWPLN
Kd (HLA-A*30:01): 257 nM | Kd (HLA-B*57:01 [2]; [13]): 106 nM | Kd (HLA-B*58:01 [3]; [13]): 763 nM

Sequence: IASPILFPF
Kd (HLA-B*15:17): 1.5 nM | Kd (HLA-B*57:01 [6]): 14.8 nM | Kd (HLA-B*58:01 [7]): 3 nM | Kd (HLA-C*03:03; [14]): 3 nM | Kd (HLA-C*12:03; [14]): 594 nM | Kd (HLA-B*46:01): 92.3 nM

Sequence: ITDITKYLY
Kd (HLA-A*01:01; source organism: Bacillus cereus G9241): 2.1 nM

Kd (HLA-A*01:01; source organism: Escherichia coli): 3 nM | Kd (HLA-A*03:01): ≥ 20000 nM | Kd (HLA-B*15:01 [8]): 2400 nM
Sequence: ITDYIVGYY

Sequence: KASQEGPLPE
Kd (HLA-B*57:01 [2]; [15]): 894 nM | Kd (HLA-B*58:01 [3]; [15]): 669 nM

Sequence: KPYTAGNKV
Kd (HLA-B*07:02 [9]; [16]): 36.6 nM | Kd (HLA-B*35:01 [10]; [16]): ≥ 77400 nM | Kd (HLA-B*51:01; [16]): 10.3 nM | Kd (HLA-B*53:01; [16]): ≥ 78200 nM | Kd (HLA-B*54:01; [16]): 29.5 nM

Sequence: LPFYETLPEL
Kd (HLA-B*07:02 [9]; [16]): 79.8 nM | Kd (HLA-B*35:01 [10]; [16]): 63.1 nM | Kd (HLA-B*51:01; [16]): 55.1 nM | Kd (HLA-B*53:01; [16]): 57 nM | Kd (HLA-B*54:01; [16]): 29.7 nM

Kd (HLA-A*01:01; source organism: Escherichia coli O139:H28 str. E24377A): ≥ 20000 nM
Sequence: LSDICSGLQ

Sequence: MEVGNTVAF
Kd (HLA-B*18:01): ≤ 1 nM | Kd (HLA-B*40:01): 1.6 nM | Kd (HLA-B*35:01 [5]; source organism: Francisella tularensis subsp. tularensis FSC198): 558 nM

Sequence: MGITAEWLW
Kd (HLA-B*53:01; [17]): 6.6 nM | Kd (HLA-B*57:01 [2]; [17]): 8.74 nM | Kd (HLA-B*58:01 [3]; [17]): 0.436 nM

Sequence: MPSEDGAEAL
Kd (HLA-B*07:02 [9]; [18]): 1360 nM | Kd (HLA-B*35:01 [10]; [18]): 68.1 nM | Kd (HLA-B*51:01; [18]): ≥ 21500 nM | Kd (HLA-B*53:01; [18]): 1730 nM | Kd (HLA-B*54:01; [18]): 2850 nM

Sequence: NPTKYIRWKL
Kd (HLA-B*07:02 [9]; [16]): 27 nM | Kd (HLA-B*35:01 [10]; [16]): 15000 nM | Kd (HLA-B*51:01; [16]): ≥ 59400 nM | Kd (HLA-B*53:01; [16]): 2020 nM | Kd (HLA-B*54:01; [16]): 5880 nM
